# Legend:
# human leukocytes = assay: rCD154-induced activation of human leukocytes; assay type: cell-based
# Description: mAb1 binds to human CD40 with high affinity (Kd of 0.3 nM).
# [1] = system: T cell-dependent antibody responses (TDAR); assay: In vivo T cell-dependent antibody responses and germinal centers
# [2] = 26-week chronic toxicity study in cynomolgus monkeys; assay type: in vivo; conditions: for mean Cmax,ss: sc
# Description: Inflammatory lesions in the kidneys and lungs of 2 animals at 50 mg/kg were noted, and in one of the two animals, lesions in the eyes and trachea were also noted. […] In view of these inflammatory findings, the No Observed Adverse Effect Level (NOAEL) for the 13-week toxicity study was set at 10 mg/kg. […] The NOAEL derived from the 26-week cynomolgus monkey study is considered the most relevant for supporting the clinical dosing regimen.
# Adequate safety margin from preclinical toxicological studies: GLP toxicology studies to date have tested CFZ533 at (i) weekly s.c. dosing for 13 weeks at 10, 50, and 150 mg/kg (s.c. and i.v.) in rhesus monkeys, and (ii) weekly s.c. dosing for 26 weeks at 1, 50, and 150 mg/kg in cynomolgus monkeys.
# In the 26-week toxicity study in cynomolgus monkey, at steady state, an average concentration of 8300 μg/mL (Cav,ss) was obtained after weekly dosing at 150 mg/kg (NOAEL).
# The 10 mg/kg i.v. regimen was expected to provide, throughout the entire treatment period (placebo-controlled and open-label, see FIG. 3), sustained plasma concentrations above 40 μg/mL, to anticipate for higher CD40 expression in tx patients, and incomplete PD effects in target tissue due to loss of target saturation.
# CD40 [3] = system: CD40; design: species or system cynomolgus monkeys; conditions: cynomolgus monkey, in vivo
# Description: (§1) In a PK/PD study in cynomolgus monkeys, the inflection point (about 10 μg/mL) in the PK profiles was associated with a drop of CD40 saturation, as determined in an independent lymphocyte target saturation assay. As such this inflection point is viewed as a marker for the level of saturation of CD40, and an evidence for target engagement. […] Monkeys were immunized with KLH three times (the first was about 3 weeks prior to dosing, the second was 2 weeks after mAb1 administration, and the third was after complete wash-out of mAb1). […]
# CD40 [4] = target: T1, CD40 (Macaca mulatta, UniProt A0ACM8QRX8); assay: KLH / tetanus toxoid immunization in rhesus monkeys; assay type: in vivo
# T1 construct: CD40 occupancy by mAb1 at plasma concentrations >40 μg/mL; endogenous in cells; host or cells: rhesus monkeys (in vivo)
# Description: as §1
# [5] = system: PBMC incubated with EBV supernatant; assay: EBV regression assay with PBMC; assay type: cell-based, human
# Description: Buffy coats from six healthy volunteers (18-001 to 18-006) were received from Blutspendezentrum Bern. Peripheral blood mononuclear cells (PBMC) were isolated using LeucoSep tubes following manufacturer's instructions, counted with TC20 and adjusted in cell culture medium (Medium, buffers and reagents). All conditions (see Table 3-2) were run in five replicates in 96-well U-bottom plates and contained 2×10^5 cells/well. PBMC were incubated for 10-15 minutes at 37° C. before adding cell culture medium containing EBV-supernatant and transferrin (see Medium, buffers and reagents). […] Cell pellets were stained and analyzed by flow cytometry (FACS staining procedure).
# In FIG. 1, the gating strategy is shown.
# EBV infections = assay: Clinical kidney transplantation data; assay type: in vivo, human; conditions: CNI-free therapy in kidney transplantation
# [6] = in vivo
# whole blood cultures = whole blood cultures incubated for three days (Ristov 2018); cited from earlier work
# kidney allografts = conditions: cited from earlier work
# [7] = system: EBV-seropositive EBV-B cell/T cell co-cultures; assay: EBV-B cell/T cell co-culture, EBV-seropositive donors
# [8] = cynomolgus monkey, in vivo, 150 mg/kg
# [9] = 14 days, CsA 0.1, 1 μM, Belatacept 10, 50 μg/mL, CFZ533, hIgG1 10-200 μg/mL, vs medium+EBV
# [10] = 10-200 μg/mL, priming, recall, priming and recall, 11 days
# T1 sequence (A0ACM8QRX8 21-278): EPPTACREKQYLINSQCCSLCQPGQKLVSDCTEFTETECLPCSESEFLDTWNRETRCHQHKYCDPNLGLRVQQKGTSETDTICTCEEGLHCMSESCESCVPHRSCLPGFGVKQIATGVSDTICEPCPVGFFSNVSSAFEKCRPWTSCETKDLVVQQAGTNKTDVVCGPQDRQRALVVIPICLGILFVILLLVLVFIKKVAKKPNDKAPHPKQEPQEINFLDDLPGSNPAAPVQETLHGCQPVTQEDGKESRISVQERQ
substance,measurement,setting,value
"CFZ533: fully human monoclonal Fc-silent, non-depleting anti-CD40 antibody (IgG1/K); heavy chain SEQ ID NO: 9, light chain SEQ ID NO: 10",rCD154-induced activation of human leukocytes,human leukocytes,inhibits
same,established germinal centers (GCs),[1],can disrupt
same,primary and secondary T cell-dependent antibody responses (TDAR),[1],blocks
same,average steady state plasma concentration with complete suppression of germinal centers in cortical B cell areas of lymph nodes,[2]; 1 mg/kg dose group,> 38 µg/mL
same,NOAEL,"[2]; 26-week, cynomolgus",150 mg/kg
same,adverse findings,"[2]; cynomolgus monkey, in vivo","no adverse, mAb1-related findings"
same,"average concentration at steady state (Cav,ss)",[2]; [8],8300 µg/mL
same,"systemic exposure (AUC, steady state) over a 1-month period",[2]; [8],232400 µg·days/mL
same,"mean Cmax,ss","[2]; cynomolgus monkey, in vivo, 1 mg/kg",44 µg/mL
same,"mean Cmax,ss","[2]; cynomolgus monkey, in vivo, 50 mg/kg",3235 µg/mL
same,GCs in cortical B-cell areas of the spleen and lymphatic tissues,[2]; post-mortem histological and immuno-histological evaluation,decrease
same,"Cmax margin: cynomolgus Cmax,ss at NOAEL versus expected human Cmax",[2]; proposed intravenous regimen,24 fold
same,inflection point in the PK profiles (drop of CD40 saturation),CD40 [3],about 10 μg/mL
same,plasma concentration at which CD40 occupancy completely prevented recall antibody responses,CD40 [4]; at the time of the second KLH vaccination,> 40 µg/mL
same,response to the third KLH,CD40 [4]; once mAb1 was cleared,full memory antibody response
same,EBV control in vitro,[5],does not impair
same,CD3+ T cell counts,[5]; [9],did not had any effect
same,CD19+ B cell counts,[5]; [9],decrease
same,increased incidence of EBV infections,EBV infections,not observed
same,effect on platelet aggregation,platelet aggregation,mild inhibitory effects
same,induction of platelet aggregation responses,platelet aggregation,does not induce
same,inflection point of non-linear serum concentration-time profiles,[6],10 to 20 µg/mL
same,ADCC,whole blood cultures,no ADCC
same,peripheral B cell depletion,kidney allografts; in vivo,no significant peripheral B cell depletion
same,survival of kidney allografts,kidney allografts; non-human primates,can prolong survival
same,CD3+ T cell proliferation,[7]; [10],no reducing effect
same,CD4+ T cell proliferation,[7]; [10],no decreasing effect
same,CD4+ T cell proliferation,[7]; priming only phase,slight decline

# Source: US20220332836A1, “A METHOD FOR PREVENTING HUMAN VIRUS ASSOCIATED DISORDERS IN PATIENTS” (NOVARTIS AG, priority 2019, published 2022)
